This note sets out measurements from the DeepSol protein solubility set.

This series in a line: soluble on expression in E. coli; label from the status in PepcDB or PDB records.
Regarding “MSLDDLWQTLPDPAELVTVGDLRGMIHTHSTWSDGGASIREMAEATLTLGHEFLGTADHSRAAYYANGLTIERLREQLKEIRELQRAGLPIVAGSEVDILDDGSLDFPDDVLGELDYVVVSVHSNFTLDAARQTERLIRAVSHPLVTVLGHATGRLLLRRPGYALDLDAVLGACEANGTVVEINANAARLDLDWREALRWRERLKFAINTDAHVPGGLRDARYGVMQARKAGLTPAHVVNSLGRAEFLDFVARQRAARGAPGPADREGHHHHHH”, the “soluble on expression in E. coli” value is recorded as “not soluble”.
The result for “MAMITGGELVVRTLIKAGVEHLFGLHGSHIDTIFQACLDHDVPIIDTRHEAAAGHAAEGYARAGAKLGVALVTAGGGFTNAVTPIANAWLDRTPVLFLTGSGALRDDETNTLQAGIDQVAMAAPITKWAHRVMATEHIPRLVMQAIRAALSAPRGPVLLDLPWDILMNQIDEDSVIIPDLVLSAHGARPDPADLDQALALLRKAERPVIVLGSEASRTARKTALSAFVAATGVPVFADYEGLSMLSGLPDAMRGGLVQNLYSFAKADAAPDLVLMLGARFGLNTGHGSGQLIPHSAQVIQVDPDACELGRLQGIALGIVADVGGTIEALAQATAQDAAWPDRGDWCAKVTDLAQERYASIAAKSSSEHALHPFHASQVIAKHVDAGVTVVADGALTYLWLSEVMSRVKPGGFLCHGYLGSMGVGFGTALGAQVADLEAGRRTILVTGDGSVGYSIGEFDTLVRKQLPLIVIIMNNQSWGATLHFQQLAVGPNRVTGTRLENGSYHGVAAAFGADGYHVDSVESFSAALAQALAHNRPACINVAVALDPIPPEELILIGMDPFGSHHHHHH” reads “soluble”.
The result for “MGSDKIHHHHHHVHAASRGAHRRLGAMRSSASQPLLKAALWDMDGTIVDTEPYWIEAEHALVAAHGGQWSHAQAMQLVGQSLVFSAGVLQKAGVKLEAREIIDSLTARVVSKVRKSVPWRPGARELLDQLHEAGIRCALVTMSEGPLAREVVAALPKPYFEFLVTGDTVTNGKPHPEAYLKAVELLQQGDSALTIADCVALEDSAPGVAAAMAAGVATVAIPHIVPLPDDPARATWHSLEGRTVADLQQLVARRSEFAVGDIGLEDAAFRSHGLD” reads “not soluble”; that for “MNFQEENENIKNDIEINLLHSAEADSVEAMMDLAVYGLAAMVAKHNKTRGEQLVLQAIAGHMRKLLAALPETESLVQTGKVYRRLEDLIFKTYLPEQ”, “not soluble”; that for “MARAIHVFRTPDRFVAGTVGQPGNRTFYLQAVHDSRVVSVVLEKQQVAVLAERIGALLFEVNRRFGTPVPPEPTEIDDLSPLIMPVDAEFRVGTMGLGWDSEAQSVVVELLAVTDAEFDASVVLDDTEEGPDAVRVFLTPESARQFATRSYRVISAGRPPCPLCDEPLDPEGHICARTNGYRRDVLLGSGDDPAG”, “soluble”.
The result for “MILNKKKLYFETQAFTDKLINEISINMSKRKELINCYDIEAYVKETENIDFFDYPFKKQSKKLIWGSVTKIGDVTMVATAQHLKIEIKNFTKMHEIIHHYFDYTTDMPNNEKSFDTLLIKKGYLPEDYPKEFRANKGAGMLLINKKALKYAFSTYDDLEKMASFFNVNDIVLKIRILDELIYSHNLSYKQANLIYNSYYFQQQTQLKEILLK” reads “not soluble”.
With “MSAVLKKNKPFSILLMGTDTGALGRSDVGRTDTLMVATINPTKETAYLTSIPRDTRVTVGSGVNASVQKINAAYTIGGSKTAVKTVENLLDIPIDFYAIVNMGGLEKMVDAVGGVDVTPPLTFHYGAANVTKGKKTHLNGKQALAYSRMRHEDPLGDYGRQKRQRQVLQKMVVKAAGLSSITRYQTILKSLNGNLKTDLTFDDLMQIRAKYGDASHHIKSETLQGQDAMIDGLSYQVPTTSELKKVSNHIRKTLELANTTKFTTDADTDTTGSTAYGSSDNSGYGYLEHHHHHH”, the “soluble on expression in E. coli” value is “soluble”.
The result for “MGSSHHHHHHSSGRENLYFQGHMIPEHLSIYTAYNANIAAIVKLNQETIQNLINAFDPDEVKRRIEEYPREINEPIDFVARLVHTLKLGKPAAVPLVNEKMNEWFDKTFRYEEERLGGQAGIIANTLAGLKIRKVIAYTPFLPKRLAELFKKGVLYPVVENGELQFKPIQEAYREGDPLKINRIFEFRKGLKFKLGDETIEIPNSGRFIVSARFESISRIETREDIKPFLGEIGKEVDGAIFSGYQGLRTKYSDGKDANYYLRRAKEDIIEFKEKDVKIHVEFASVQDRKLRKKIITNILPFVDSVGIDEAEIAQILSVLGYRELADRIFTYNRLEDSILGGMIILDELNFEILQVHTTYYLMYITHRDNPLSEEELAKSLEFGTTLAAARASLGDIRGPDDYKVGLKVPFNERSEYVKLRFEEAKSRLRMREYKVVVIPTRLVQNPVLTVGLGDTISAGAFLTYLEFLKRHGS” reads “soluble”; that for “MSARSLYQDTAVAALRDDLALALCAAAHHGLGEGVCNHFSVALPGQAGAFLLNPRGLMWSEVRAEDIVLVDAAGNKLAGRHEVEPTAMFIHAAIHQVAGKACVLHTHMPYATALTLTEARMLDTTLSQNAMRFHGRVAADRRYNGLALDAAEGERIARAMDGADIAFLGNHGVVVCGERIDYAFDDLYYLERACCAQVLAESSGRPLVPLDAALAASVAGQARSERLQSTLFFEALRRALGLEHHHHHH”, “not soluble”; that for “MNFRTDSIDDLDKFKKEFKPVMHLKGDAFNQQLQSLINKYPQIQKNMKSEFIAYYDKEKNRETVKNYAWNLQKSINDIMQSYPSTKFVQFYKDDVSPSMVDGNGRLKSDTNVISIEGGKYDENKLEHHHHHH”, “soluble”.
Regarding “MGGSHHHHHHGMASLAPGSSRVELFKRQSSKVPFEKDGKVTERVVHSFRLPALVNVDGVMVAIADARYETSFANSLIDTVAKYSVDDGETWETQIAIKNSRASSVSRVVDPTVIVKGNKLYVLVGSYNSSRSYWTSHGDARDWDILLAVGEVTKSTAGGKITASIKWGSPVSLKEFFPAEMEGMHTNQFLGGAGVAIVASNGNLVYPVQVTNKKKQVFSKIFYSEDEGKTWKFGKGRSAFGCSEPVALEWEGKLIINTRVDYRRRLVYESSDMGNTWLEAVGTLSRVWGPSPKSNQPGSQSSFTAVTIEGMRVMLFTHPLNFKGRWLRDRLNLWLTDNQRIYNVGQVSIGDENSAYSSVLYKDDKLYCLHEINSNEVYSLVFARLVGELRIIKSVLQSWKNWDSHLSSICTPADPAASSSERGCGPAVTTVGLVGFLSHSATKTEWEDAYRCVNASTANAERVPNGLKFAGVGGGALWPVSQQGQNQRYHFANHAFTLVASVTIHEVPKGASPLLGASLDSSGGKKLLGLSYDKRHQWQPIYGSTPVTPTGSWEMGKRYHVVLTMANKIGSVYIDGEPLEGSGQTVVPDERTPDISHFYVGGYKRSGMPTDSRVTVNNVLLYNRQLNAEEIRTLFLSQDLIGTEAHMD”, the “soluble on expression in E. coli” value is “soluble”.
Consider “MGSDKIHHHHHHMMDLEGYVRRCLRKKIPENKIIEDGFKRILEIKEDVDEEFAKKFIKAILEEVKTTEKFREIDDENLKTLLKYPKSGVTMGRMGVGSRGEGDFFVHREIARIVKSTKVKAYVSAEEQDDAGIVRADAKYIVAAIDGTHSRLSDFPFLGGFHVTRAALRDIYVMGAEAVALISDVHLADDGDVGKIFDFTAGICAVSEAVNVPLIGGSTLRVGGDMVIGDRLVSAVGAIGVIKEGEPTARRNAEVGDVILMTEGSGGGTITTTALYYGWFDVIYETLNVDFIKACQNLIRSGLIKKIHAMTDVTNGGLRGDAYEISKTAKVSLIFDKEKVYKTINPKVLEMLEVLNIDPLGVSTDSLMIICPEEYADDIKKVTGAIEVGYVEEGEESYLVDGNKKIPLKPMFRESAYTPVKKVVGERKPGDFEEMKEKVRRACDEAIKKKDFVVELLKERKKKF”, for which the “soluble on expression in E. coli” value is “not soluble”.
Regarding “MAFNKVKIVKGSGGWGGPLIIEPTEKKNKVVYVTGGAKPETAVKIAELTGCELIDGFSQGVKDDEIACVIINCGGTLRCGIYPQKKIPTINIMKTGKSGPLAMFIKEDIYVSGVKPTNVEQ”, the “soluble on expression in E. coli” value was “not soluble”.
The result for “MASKAVILAGGLGTRLSEETIVKPKPMVEIGGKPILWHIMKMYSVHGIKDFIICCGYKGYVIKEYFANYFLHMSDVTFHMAENRMEVHHKRVEPWNVTLVDTGDSSMTGGRLKRVAEYVKDDEAFLFTYGDGVADLDIKATIDFHKAHGKKATLTATFPPGRFGALDIQAGQVRSFQEKPKGDGAMINGGFFVLNPSVIDLIDNDATTWEQEPLMTLAQQGELMAFEHPGFWQPMDTLRDKVYLEGLWEKGKAPWKTWE” reads “soluble”; that for “MGSDKIHHHHHHMKKMTILSAAVLMALGAPVAMAKVSEAEAAKLGAELTPQGAVKAGNADGSIPAWDGGITTAVAGYSQGMHHPDPFPTDKILFTITNANKAQYKDFLNPGQVKLFELYPETYKMNVYETRRTASVPQYVYDATKANATRAELIAQGNGISGATIGVPFPIPANGLEVIWNHVLRFRGVDLETNRSQASPTADGSYTLVETAEELRFEYSRPEITLDKLKETNTLFFFKQVVTQPARLAGTALLVKETMDQEALPRQAWTYNTGQRRVRKAPNIAFDTPGTVADGLRTTDDFDMFNGSPVRYNWELVGKKEMYIPYNDYKLHSDSLKYDQILKPGHINPDLVRWEKHRVWEVKATLKAGMRHIYKTRVFYIDEDSWQVSLTDMYDNRDELYRVANAHSINYYEVPTLWTTLEVFHDLQSRRYLAMGLDNEGRMYNFKANLTESNFTPDALRRAGIR”, “not soluble”; that for “MGHHHHHHSHMMPAERRLPLSFVLDVLEGRAQHPGVLYVQKQCSNLPSELPQLLPDLESHVPWASEALGKMPDAVNFWLGEAAAVTSLHKDHYENLYCVVSGEKHFLFHPPSDRPFIPYELYTPGTYQPSDRPFIPYELYTPATYQLTEEGTFKVVDEEAMEKVPWIPLDPLAPDLARYPSYSQAQALRCMVRAGEMLYLPALWFHHVQQSQGCIAVNFWYDMEYDLKYSYFQLLDSLTKASGLD”, “soluble”.
The result for “MAKYSEQFKLTVVKAYLAGNIGFRKVSSQFSIDSSLLRRWVANYKSHGHTGHRKPGLRYSEAFKRSVLEHKREHGLSLRQTAAHFGIGDPGQIVIWEQQHYSNDLAPYVPKRRKSVAMPKKPYPTAPVIDDDTQKTRDQLMAELEYLRMENAYLKKLEELKEQQRRQKKKPLEHHHHHH” reads “soluble”.
The result for “MTNHIEYKKNQIIASSEIDDLIFMSAPQEWSLEEQKEIQDKLVREAFHFHYNRNEKYRNYCISQHINENLHSIDEIPVFPTSIFKHMKFHTVSMGDIENWHTSSGTQGIKSCIARDRLSIERLLGSVNFGMKYVGNWFEHQMELVNLGPDRFSASNVWFKYVMSLVELLYPTVFTVNNDKIDFEETVNHLYRINNSNKDICLIGPPFFVSLLCQYMKENNIEFKGENRLHVITGGGWKSNENSSLNRQDFNQLIMDTFQLDNVNQIRDTFNQVELNTCFFEDEFQRKHVPPWVYARALDPETLKPVADGELGLLSYMDASSTAYPAFIVTDDIGIVREIREPDPYPGVTVEIVRRLNTRAQKGCALSMASFIQSTILEHHHHHH” reads “not soluble”; that for “MAHHHHHHMEHQYFFIEATWLEAAAAGICSRNGIILKDAIAKAEKGIPVQIKNDSAPTMRSLIQTTHASLEQACERYLHQNARNLRLTRASKPTPAVEALNEAERASCRELVVRIAITGALTQYQRCTRKCILQDSSSLSPSLSHPAVSASKTVQGNGVTDKQLERSFQTTLLKGLLYAFESFQECHSMNRDHYPPRVDSNTPGTVGWDTLVLLYLVHRIPQVARHASGSAIDDCIGQVIRTWRKLLVALQSVDAQEAPEHSRRRGALSLVNGLLIILFQRYNTHQCAVLLGAVEHAETVAESSKEPARSILHPSRHMVSEVVTYHYYQGRMRLYERKLDEAHRILRIAYTLLPPAGFGNEPQRLNKERVRFFLSVAGVANGRRIPDEILRADEDLLPRLFGSLTAAIERGDPVCFSAALDSHASTFHRRGVYLILQQAKILCYLMVVARVHAAMAALSDVDNSRITIPTLLAAYTYITSEKPQSGKSSAESKKRSRDDEAVSPVSEARMAESVMDEDRMALWIAKLIARGYVRGYYSHEHKTLVLSKKVPFPLLQEEV”, “not soluble”.
